Results: publication PMC3137230 (ACS Chemical Biology, 2011)

Target: the molecule itself
Test: crystal structure

B1: MmOmeRS, C-terminal catalytic domain (residues 185-454) of the evolved Methanosarcina mazei pyrrolysyl-tRNA synthetase (enzyme, UniProt Q8PWY1 185-454, looked up)
chain: ASAPALTKSQTDRLEVLLNPKDEISLNSGKPFRELESELLSRRKKDLQQIYAEERENYLGKLEREITRFFVDRGFLEIKSPILIPLEYIERMGIDNDTELSKQIFRVDKNFCLRPMLTPNLYNYLRKLDRALPDPIKIFEIGPCYRKESDGKEHLEEFTMLVFWQMGSGCTRENLESIITDFLNHLGIDFKIVGDSCMVFGDTLDVMHGDLELSSALVGPIPLDREWGIDKPWIGAGFGLERLLKVKHDFKNIKRAARSESYYNGISTNL
binding result: binds
